This is an account of results in patent US20140120555A1 (PIERRE FABRE MEDICAMENT, published 2014).

Substitutions are numbered along the chain they refer to. Names may count otherwise.

The target of experiment [1] is T1, Recombinant human FcγRIIIA variant V [CD16a], Gln17-Gln208 with C-terminal 6-His tag (human, UniProt P08637 17-208).
T1 construct: range 17-208; 'variant V' is given without a position, so no substitution is written; also called h-FcγRIIIA
Briefly: SPR (Biacore X): h-FcγRIIIA injected over c515H7 Mab immobilized on a CM4 sensorchip; Langmuir model. On the procedure: (§1) 2017 RU of c515H7 Mab were immobilized using the amine coupling kit chemistry on the second flowcell (FC2) of a CM4 sensorchip. The first flowcell (FC1) activated by NHS and EDC mixture and des-activated by ethanolamine served as the reference surface to check and subtract the non specific interaction between the analyte (Fc gamma receptors) and the sensorchip matrix.
(§2) The kinetic experiments were carried out at 25° Celsius at a flow rate of 30 μl/min. The HBS-EP buffer was used either as the running buffer or for the preparation of analyte solutions. The analyte solutions were injected during 90 seconds (association phase) with a 90 seconds delay (dissociation phase). An injection of running buffer as analyte was used as a double reference. All the sensorgrams were corrected by this double reference sensorgram.
(§3) After each injection of the analyte, the sensorchip was regenerated by injection of 20 mM NaOH, 75 mM NaCl solution.
A general note: SPR reads the build-up and loss of mass on a sensor chip optically.

Experiment [2] has as its target T2, Recombinant human FcγRI [CD64], Gln16-Pro288 with C-terminal 6-His tag (human, UniProt P12314 16-288).
T2 construct: range 16-288; Soluble form bought from R&D Systems; also called h-FcγRI
Briefly: SPR (Biacore X): h-FcγRI injected over c515H7 Mab immobilized on a CM4 sensorchip; heterogeneous ligand model, minor component (0%). On the procedure: as §1, §2, §3

In experiment [3] the target is T3, Recombinant mouse FcγRI [CD64], Gln25-Pro297 with C-terminal 6-His tag (mouse, UniProt P26151 25-297).
T3 construct: range 25-297; Soluble form bought from R&D Systems; also called m-FcγRI
T3 sequence: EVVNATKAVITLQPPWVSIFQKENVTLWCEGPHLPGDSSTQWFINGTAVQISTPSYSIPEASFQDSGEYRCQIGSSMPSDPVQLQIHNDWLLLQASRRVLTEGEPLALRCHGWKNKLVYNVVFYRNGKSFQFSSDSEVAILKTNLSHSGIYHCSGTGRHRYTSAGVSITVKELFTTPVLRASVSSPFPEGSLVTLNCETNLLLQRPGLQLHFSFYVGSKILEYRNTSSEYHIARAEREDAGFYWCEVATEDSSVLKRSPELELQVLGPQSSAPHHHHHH
The experiment can be described thus: SPR (Biacore X), Mab on CM4 chip, m-FcγRI as analyte, heterogeneous ligand model, major component; major component (81%), lower value. On the procedure: as §1, §2
According to this model, the c515H7 Mab Fc domain may be regarded as a mixture of two components.

The target in experiment [4] is T4, Recombinant mouse FcγRIII [CD16], Ala31-Thr215 with C-terminal 10-His tag (mouse, UniProt P08508 31-215).
T4 construct: Soluble form bought from R&D Systems; also called m-FcγRIII
T4 sequence: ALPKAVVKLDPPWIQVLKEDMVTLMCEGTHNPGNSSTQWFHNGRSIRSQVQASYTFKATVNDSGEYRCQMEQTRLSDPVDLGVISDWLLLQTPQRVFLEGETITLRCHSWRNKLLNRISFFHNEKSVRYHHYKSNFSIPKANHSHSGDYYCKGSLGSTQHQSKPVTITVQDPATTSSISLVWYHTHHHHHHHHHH
Briefly: SPR (Biacore X): m-FcγRIII injected over c515H7 Mab immobilized on a CM4 sensorchip; heterogeneous ligand model, minor component (1%). The procedure: as §1, §2, §3

The target of experiment [5] is T2, Recombinant human FcγRI [CD64], …. Briefly: SPR (Biacore X): h-FcγRI injected over c515H7 Mab immobilized on a CM4 sensorchip; heterogeneous ligand model, major component (100%). The procedure: as §1, §2, §3
The target of experiment [6] is T3, Recombinant mouse FcγRI [CD64], …. The experiment can be described thus: SPR (Biacore X): m-FcγRI injected over c515H7 Mab immobilized on a CM4 sensorchip; heterogeneous ligand model, major component (81%). The procedure:
as §1, §2, §3

The target of experiment [7] is T4, Recombinant mouse FcγRIII [CD16], …. The experiment can be described thus: SPR (Biacore X), Mab on CM4 chip, m-FcγRIII as analyte, Langmuïr model; higher of the two Langmuïr-fit values. On the procedure:
(§4) 1964 RU of hz515H7VH1D76NVL2 Mab were immobilized using the amine coupling kit chemistry on the second flowcell (FC2) of a CM4 sensorchip. The first flowcell (FC1) activated by NHS and EDC mixture and des-activated by ethanolamine served as the reference surface to check and subtract the non specific interaction between the analyte (Fc gamma receptors) and the sensorchip matrix.
as §2
(§5) Using the Langmuïr model the constant of dissociation was around 17 and 18 nM.

The target is the same in experiment [8]. Briefly: SPR (Biacore X): m-FcγRIII injected over hz515H7VH1D76NVL2 Mab immobilized on a CM4 sensorchip; Langmuir model. On the procedure: as §4, §2, §5
The target of experiment [9] is T2, Recombinant human FcγRI [CD64], …. The experiment can be described thus: SPR (Biacore X): h-FcγRI injected over hz515H7VH1D76NVL2 Mab immobilized on a CM4 sensorchip; heterogeneous ligand model, major component (99%). The procedure: The experiments were carried out using a Biacore X device. The soluble forms of the four Fc […]gamma receptors used in this study were purchased from R&D Systems: […]

T1 sequence (P08637 other isoform, or with tags, fused parts or gaps mutant limits assumed, form in doubt): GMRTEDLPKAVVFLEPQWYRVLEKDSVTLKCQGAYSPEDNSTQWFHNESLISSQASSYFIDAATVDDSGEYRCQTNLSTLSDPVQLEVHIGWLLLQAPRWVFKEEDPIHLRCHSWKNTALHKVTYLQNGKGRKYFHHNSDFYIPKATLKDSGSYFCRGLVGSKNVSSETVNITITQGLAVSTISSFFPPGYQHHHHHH
T2 sequence (P12314 other isoform, or with tags, fused parts or gaps limits assumed): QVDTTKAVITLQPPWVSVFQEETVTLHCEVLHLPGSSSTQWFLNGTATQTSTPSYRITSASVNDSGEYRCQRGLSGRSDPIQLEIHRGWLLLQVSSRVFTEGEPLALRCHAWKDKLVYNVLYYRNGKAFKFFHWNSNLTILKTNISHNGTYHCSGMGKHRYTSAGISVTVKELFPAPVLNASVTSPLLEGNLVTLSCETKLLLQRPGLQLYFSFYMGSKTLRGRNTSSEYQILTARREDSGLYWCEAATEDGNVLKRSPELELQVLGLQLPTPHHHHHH

B1: chimeric antibody c515H7 (antibody, human IgG1, kappa)
heavy: not shown
light: DIVMSQSPSSLAVSAGEKVTMSCKSSQSLFNSRTRKNYLAWYQQKPGQSPKLLIYWASARDSGVPARFTGSGSETYFTLTISRVQAEDLAVYYCMQSFNLRTFGGGTKLEIKRTVAAPSVFIFPPSDEQLKSGTASVVCLLNNFYPREAKVQWKVDNALQSGNSQESVTEQDSKDSTYSLSSTLTLSKADYEKHKVYACEVTHQGLSSPVTKSFNRGEC
notes: Human IgG1/kappa constant domains; also called c515H7 Mab; chimeric 515H7
Usually Kd stands for the equilibrium constant for the complex coming apart. Usually koff stands for a measure of how fast the partners let go of each other. A word on the kon: it is a measure of how fast the partners come together. In the case of B1, the Kd in experiment [1] was 63.8 nM; in experiment [2], 0.06 nM; in experiment [3] it was ~380 nM; in experiment [4], 67 nM; in experiment [5] it was 1.22 nM; in experiment [6] it was 416 nM. Further, the koff in [1] came to 0.0263 s⁻¹; in [2] it was 7.3e-05 s⁻¹; in [4] it was 0.0024 s⁻¹; in [5], 0.000599 s⁻¹; in experiment [6], 0.138 s⁻¹. Besides, the kon in experiment [1] amounted to 412000 M⁻¹ s⁻¹; in experiment [2], 1.14e+06 M⁻¹ s⁻¹; in [4] it was 40000 M⁻¹ s⁻¹; in experiment [5] it was 493000 M⁻¹ s⁻¹; in experiment [6] it was 332000 M⁻¹ s⁻¹.

B2: humanized antibody Hz515H7 VH1 D76N VL2 (antibody, human IgG1, kappa)
heavy: not shown
light: B1 light with S5T, A15L, K18R, V19A, G105Q, L109V
notes: IgG1/kappa; also called hz515H7VL2; hz515H7-1
For the molecule B2, in [7], the Kd was ~18 nM. Moreover, in experiment [8], the dissociation constant Kd is 17.4 nM, the off-rate (koff) worked out at 0.00364 s⁻¹ and the kon was determined as 209000 M⁻¹ s⁻¹. In [9], the dissociation constant Kd amounted to 0.69 nM, the koff turned out to be 0.0004 s⁻¹ and the kon turned out to be 579000 M⁻¹ s⁻¹.
